# Data published in the nanobody polyreactivity screen of Harvey et al. (2022).
# Assay: yeast display, Sf9 membrane polyspecificity reagent, FACS + sequencing; frameworks hold sequencing errors
# Outline: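 A nanobody's polyreactivity label depends on the gate it was sorted from. Yeast display cells were stained with 10% biotinylated, detergent-solubilized Sf9 membrane reagent for 1 hour at 4 °C, enriched on streptavidin microbeads and sorted by FACS. The low and high (top ~1%) gates were set on anti-HA fluorescence for expression and streptavidin fluorescence for reagent binding.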
row,Sequence,polyreactivity (PSR sort gate)
1,QVQLVESGGGLVQAGGSLRLSCAASGRILYVYAMGRYRQAPGKERELVAAITSGGSTHYADSVKGRFTISRDNAKNTVYLQMNSLKPEDTAVYYCAAYTLRNRGGFNYWGQGTQVTVSS,high polyreactivity
2,QVQLVESGGGLVQAGGSLRLSCAASGRILYWYALGWYRQAPGKERELVAAISRSGGSTSYADSVKGRFTISRDNAKNTVYLQMNSLKPEDTAVYYCAVDRFWRPVRSGTTYDYWGQGTQVTVSS,low polyreactivity
3,QVQLVESGGGLVQAGGSLRLSCAASGRILYYNDMGWYRQAPGKERELVAAIDRGGSTSYADSVKGRFTISRDNAMNTVYLQMNSLKQEDTAVYYCAVARGGRRKYEYWGQGTQVTVSS,low polyreactivity
4,QVQLVESGGGLVQAGGSLRLSCAASGRILYYYTMGWYRQAPGKEREFVAAISSRGGSTYADSVKGRFTISRDNAKNTVYLQMNSLKPEDTAVFYCNARLKPRWGGRYDYWGQGTQVTVSS,high polyreactivity
5,QVQLVESGGGLVQAGGSLRLSCAASGRILYYYVMGWYRPAPGKEREFVAAISSSASNTYYADSVKGRITISRDNAKNTVEFQMNSLKPEDTAVYYCAADTLWLDWQGYDYWGQGTQVTVSS,low polyreactivity
6,QVQLVESGGGLVQAGGSLRLSCAASGRILYYYVMGWYRQAPGKERELVAAITRGGSTDYADSVKGRFTISLDNAKNTVYLQMNSLKPEDTAVYYCAAVVYLHYSVDYWGQGSQVTVSS,low polyreactivity
7,QVQLVESGGGLVQAGGSLRLSCAASGRINYFYAIVWSRQAPGKEQELVAAISTSGGSTYYADCVKGRFTISRDNAKNTLYLQMNSLTPEETAVYDCAARFRYYGSEYDYWGQGTQVTVSS,low polyreactivity
8,QVQLVESGGGLVQAGGSLRLSCAASGRIPVNAMGWYRQAPVKERELVAAISVSGGSTNYADSVKGRFTISRDNAKNTVYLQMNSLKPEDTAVYYCNADPDWWYPYNYWGQGTQVTLSS,low polyreactivity
9,QVQLVESGGGLVQAGGSLRLSCAASGRIQYNAMGWYRQAPGKEREFVAAISWSGGTTYYADSVKGRFTISRDNAKNTVYLQMNRLKPEDTAVYYCATPYTHWGQGTQVTVSS,high polyreactivity
10,QVQLVESGGGLVQAGGSLRLSCAASGRISDVYVMVWYRQAPGKERELFAAITWSGGDTYYADSVKGRFTISRDNAKNTVYLQMNSLKPEDTEVYYCTADTGKWGGNGWYDFDYWGQGTQVTVSS,low polyreactivity
11,QVQLVESGGGLVQAGGSLRLSCAASGRISESNDMGWYRQAPGKEREVVAAISSSGGSTYYADSVKGRFTISRDNAKNTVYLQMNSLKPEETAVDYCNAVYYRTVLKIGVYEYDYWGQGTQVTVST,low polyreactivity
12,QVQLVESGGGLVQAGGSLRLSCAASGRISFYYAMGWYRQAPGKERELVAAISRGGSTYYADSVKGRFTISRDNAKNTVYLQMNSLKPEDTAVYYCAATYSGVDTPSGYDYWGQGTQVTVSS,low polyreactivity
13,QVQLVESGGGLVQAGGSLRLSCAASGRISFYYARGWSIQAPGKERELVAAISRGGSTYYADSVKGRFTISRDNAKNTVYLQMNSLKPEDTAVYYCAATYSVVDTPSGYDYWGQGTLVTVSS,low polyreactivity
14,QVQLVESGGGLVQAGGSLRLSCAASGRISGYAMGWYRQAPGKERELVAAISTRGGTTYYADSVKGRFTISRDNAKNTVYLQMNSLSPEDTAVYYCNAASSRWPEYDYWGQGTQVTVSS,high polyreactivity
15,QVQLVESGGGLVQAGGSLRLSCAASGRISGYYAMGWYRQAPGKEREFVAAITRSGGSTYYADSVKGRFTISRDNAKNTVYLQMNSLKPEDTAVYYCAADTRGFSYGNGYGYWGQGTQVTVSS,low polyreactivity
16,QVQLVESGGGLVQAGGSLRLSCAASGRISIKNAMGWYRQAPGQERELVAAIRWSADSTYYADSVKGRFTISRDNAKTTVYLQMNSLKPEDTAVYYCAATGRLRYYWGQGTQVNVSS,high polyreactivity
17,QVQLVESGGGLVQAGGSLRLSCAASGRISIWYAMGWYRQAPGKERELVARISTSSGRTYYADSVKGRFTISRDNAKNTVYLQMNSLKPEDTAVYYCNAAGYRIYFSTRYDYWGQGTQVTVSS,high polyreactivity
18,QVQLVESGGGLVQAGGSLRLSCAASGRISIWYDMGWYIQAPGKEREFVASITSGGSTYADSVKGRFTISRDNAKNTVYLQMNSLKPEDTAVYYCAADEAPYVPSEQRHSRFSHWGQGTQVTVSS,low polyreactivity
19,QVQLVESGGGLVQAGGSLRLSCAASGRISKGYAMGWYRPAPGKERELVAAISWRTSSTYYADSVKGRFTISRDNAKNTVYLQMNSLKPEANAVYYCAAETWLGSWRQVGMDYWGQGTQVTVSS,high polyreactivity
20,QVQLVESGGGLVQAGGSLRLSCAASGRISLSNAMGWYRQAPGKEREFVAAITKRSDRTYYADSVKGRFTISRDNAKNTVSLQMNSLKPEDTAVYYCAAKPLFGTRDDYWGQGTQVTVSS,low polyreactivity
21,QVQLVESGGGLVQAGGSLRLSCAASGRISNDYAMGWYRQAPGKDRELVATITFSGGDTYYADSVKGRFTISRDHAKNTVYLQMNSLKPEDTAVYYCAASKWPSYSGGWWRLLFDYWGQGTQVTVSS,low polyreactivity

row,Sequence,polyreactivity (PSR sort gate)
1,QVQLVESGGGLVQAGGSLRLSCAASGRISNKYAMGSYRQAPGKERELVAAISYSGGTTYYADSVKGRFTISRDNAKNTVYLQMNSLKPEDTAVYYCARVWSKGYGYYWGYYWGQGSQVTVSS,low polyreactivity
2,QVQLVESGGGLVQAGGSLRLSCAASGRISNRYAMGWYRQAPGKERELVAAIRRSTTSTYADSVKGRFTISRDNEKNTFYLQMNSLKPEYTAVYYCAARGGRRGGYYSWGQGTQVTVSA,high polyreactivity
3,QVQLVESGGGLVQAGGSLRLSCAASGRISPNNAMGWYRQAPGKERELVAAITASGGTTYYADSVKGRFTISRDNAKNTVYLQMNSLKPEDTAVYYCAAAVWYRGWYRYDYWGQGTQVTVSS,low polyreactivity
4,QVQLVESGGGLVQAGGSLRLSCAASGRISPVYAMGWYRQAPGKERELVAAITSGGSTNYADSVKGRFTISRDNAQNTVYLQMNSLKPEDTAVYYCAVEGFSSAAYDFEYWGQGTQVTVSS,high polyreactivity
5,QVQLVESGGGLVQAGGSLRLSCAASGRISRLYAMGWYRPAPGKERELVAAITDSGGSTYYADSVKGRFTISRDTAKNTVYLQMNSLKPEDTAVYYCAATWSNWYREYYYWGQGTQVTVSS,high polyreactivity
6,QVQLVESGGGLVQAGGSLRLSCAASGRISRRNAMGWYRQAPGKEREFVATITSSGGCTYYADSVKGRFTISRDNAKNTVYLQMNSLKPEDTAVYYCAARVRGRYTEDYWGQGTQVTVSS,high polyreactivity
7,QVQLVESGGGLVQAGGSLRLSCAASGRISSANAMGWYRPAPGKERELVAAITWSGGSTYYADSVKGRFTISRDNAKNTVYIQMNSMKQEDTAVYYCAAESSAYGGGTSDAGYESDYWGQGTQVTVSS,low polyreactivity
8,QVQLVESGGGLVQAGGSLRLSCAASGRISSIYAMGCYRQAPGKERELVATISVRTTGTYYADSVKGRFTISRDNAKNTVYLQMNSLKPEDTAVYYCAAAKRRGYYVKYDYWGQGTQVTVSS,high polyreactivity
9,QVQLVESGGGLVQAGGSLRLSCAASGRISVRNAMGWYRQAPGKERELVATIRSGGSTNYADSVKGRFTISRDNAKNTVYLQMYSLKPEDTAVYYCATAKLTWRSQGLDYWGQGTQVTVSS,low polyreactivity
10,QVQLVESGGGLVQAGGSLRLSCAASGRISYGNGMGWYIQAPGKERELVAAISWSTTRTYYADSVKGRFTISRDYAKNTVYLQMNSLKPEDTAVYYCNAAGRPYDFSGGRTMEYWGQGTQVTVSS,high polyreactivity
11,QVQLVESGGGLVQAGGSLRLSCAASGRISYYAMGWYRQAPGKERELVAVISSRGGSTYYADSVKGRFTISRDNAKNTVYLQMNSLKPEDTAVYYCAADLYYDAWRLYVLGYATMDYWGQGTQVTVSS,high polyreactivity
12,QVQLVESGGGLVQAGGSLRLSCAASGRITFRNAMVWYRQAPGKERELVASITSGGSTYYADSVKGRFTISRDNAKNTVYLQMNSLKPEDTAVYYCAGEGTARTSPPMDYWGQGTQVTVSS,high polyreactivity
13,QVQLVESGGGLVQAGGSLRLSCAASGRITFSHNTMGWYRQAPGKERELVAAISSGGRTNYADSVKGRFTISRDNAKNTVYLQMNSLKPEDTGVYYCARESHYDFIYDGMDYWGQGTQVTVSS,low polyreactivity
14,QVQLVESGGGLVQAGGSLRLSCAASGRIVGWYAMGWYRQAPGKERELVAGINYGGGRTYYADSVKGRFTISRDNAKNTVYLQMNSLKPEDTAVYYCAAGISGHYYWGQGTQVTVSS,high polyreactivity
15,QVQLVESGGGLVQAGGSLRLSCAASGRIVKRNAMGWYRHAPGKERELVAAISYSGGSTYYADSVKGRFTISRDNAKNTVYLEMMSLKPEDTAVYYCAVDRYPTGITKYDYWGQGTQVTVSS,high polyreactivity
16,QVQLVESGGGLVQAGGSLRLSCAASGRIVKYAMGWYRQAPGKERELVAAITSGGSTTYADSVKGRFTISRDNAKNTVYLQMNSLKPEDTAVYYCKALRRARYTRKGYEYWGQGTQVTVSS,high polyreactivity
17,QVQLVESGGGLVQAGGSLRLSCAASGRIVSGYVMGWYRQAPGKERELVAVISRSGGSTYYADSVKGRFTISRDNAKNTVYLQMNSLKPEDTAVYYCDAKHIDGSRGYDYWGQGTQVTVSS,low polyreactivity
18,QVQLVESGGGLVQAGGSLRLSCAASGRIVTAYAMGWYRPAPGKEREFVAAISSSGGSTYADSVKGRFTISRDNAKNTVYLQINSLKPEDTAVYYCAARYGFYWFPGYYYWGQGTQVTVSS,low polyreactivity
19,QVQLVESGGGLVQAGGSLRLSCAASGRIVWSYGMGWYRQAPGKERELVAAITNTGDGTYYADSVKGRFTISRDNAKNTVYLQMNSLKPEDTAVYYCAVDYRGYWYWEYDYWGQGTQVTVSS,high polyreactivity
20,QVQLVESGGGLVQAGGSLRLSCAASGRIWVNAMAWYRQAPRKEMEFVAAISTSSASTYYADSVKGRFTISRDNAKNTVYLQMNSLKPVDTAVYYCAARYLGKKFYYWGQGTQVTVSS,high polyreactivity
